Laboratory results reported in paper PMC11558679, “Artificial Zymogen Based on Protein–Polymer Hybrids” (Biomacromolecules, 2024).
Where “and” joins values, the source holds several entries; their conditions need not be identical. Identical values can stand only once.

Experiments:
[1] = Biocatalytic assay (Michaelis–Menten) of CT and CT hybrids with suc-Ala-Ala-Pro-Phe-pNA; format: biochemical, bovine
Description: N-Succinyl-L-Ala-L-Ala-L-Pro-L-Phe-p-nitroanilide was used as a substrate for enzyme bioactivity assays. In a cuvette, 0.1 M sodium phosphate buffer (910–990 μL, pH 8.0), substrate (0–80 μL, 6 mg/mL in DMSO), and enzyme (10 μL, 0.1 mg CT/mL in 0.1 M sodium phosphate buffer (pH 8.0), 40 nM as final CT concentration) were mixed. The rate of hydrolysis was determined by recording the increase in absorbance at 412 nm for the first 45 s after mixing. KM and kcat values were calculated using the Enzfitter software when plotting substrate concentration versus initial hydrolysis velocity.

[2] = Biocatalytic assay (Michaelis–Menten) of TR and TR hybrids with Tos-Gly-Pro-Arg-pNA; format: biochemical, bovine; conditions: [TR]0 = 8.4 nM, [Tos-GPR-pNA]0 = 0–302 μM, 100 mM Tris–HCl and 20 mM CaCl2 (pH 8.0), 37 °C, absorbance 412 nm, first 45 s, Enzfitter
Description: N-Tosyl-L-Gly-L-Pro-L-Arg-p-nitroanilide was used as a substrate for enzyme bioactivity assays. In a cuvette, 0.1 M Tris HCl and 20 mM calcium chloride buffer (890–990 μL, pH 8.0), substrate (0–100 μL, 2 mg/mL in DMSO), and enzyme (10 μL, 0.02 mg TR/mL in 100 mM Tris–HCl and 20 mM calcium chloride (pH 8.0), 8.4 nM as final concentration) were mixed for enzyme bioactivity assays. The rate of hydrolysis was determined by recording the increase in absorbance at 412 nm for the first 45 s after mixing. KM and kcat values were calculated using Enzfitter software when plotting substrate concentration versus initial hydrolysis velocity. […]
Table S5. Char acterization and enzymatic activity of TR-pCBMA and inhibited pro- T R pol ymer h ybr i ds with different linkers between the inhibitory and cleavable peptide moieties.
SEC-M ALLS anal ysi s Michaelis-Menten parameters d
Mnb Mwb Đb DPc KM kcat kcat/KM samples kg mol-1 kg mol-1 (CBM A/inhibitor) (µM) (s-1) (µM-1 s-1) […]
SEC -MALLS and 1H NMR spectra. d conditions: [TR]0 = 8.4 nM, [Tos-GPR-pNA]0 = 0 - 302 µM, buffer 100 mM Tris-HCl and 20 mM CaCl2 (pH 8.0) at 37 °C. […]

[3] = [CT]0 = 40 nM, [suc-AAPFpNA]0 = 0–960 μM, 100 mM sodium phosphate (pH 8.0), 37 °C, absorbance 412 nm, first 45 s, Enzfitter

“N-succinyl-L-Ala-L-Ala-L-Pro-L-Phe-p-nitroanilide [suc-Ala-Ala-Pro-Phe-pNA, reference compound]” gave a Km ([1]; rounded value in comparison with Ki, read-out: KM of the peptide substrate for native CT) of 90 µM.

With “α-Chymotrypsin from bovine pancreas, Type II [native CT]” the kcat [1, 3] was 43.6 s^–1, the kcat/KM [1, 3] was 0.484 μM^–1 s^–1 and 0.484 ± 0.069 μM^–1 s^–1 and the Km ([1]; [CT]0 = 40 nM, [suc-AAPFpNA]0 = 0–960 μM, 100 mM sodium phosphate (pH 8.0), 37 °C, absorbance 412 nm, first 45 s, Enzfitter, read-out: KM) was 90.1 ± 12.5 µM.

B1: TR-pCBMA hybrid: control without inhibitory domain; poly(CBMA) exclusively grafted from TR (conjugate, UniProt P00760 24-246, looked up)
Serine protease 1: IVGGYTCGANTVPYQVSLNSGYHFCGGSLINSQWVVSAAHCYKSGIQVRLGEDNINVVEGNEQFISASKSIVHPSYNSNTLNNDIMLIKLKSAASLNSRVASISLPTSCASAGTQCLISGWGNTKSSGTSYPDVLKCLKAPILSDSSCKSAYPGQITSNMFCAGYLEGGKDSCQGDSGGPVVCSGKLQGIVSWGSGCAQKNKPGVYTKVCNYVSWIKQTIASN
modifications: poly(CBMA) grafted
In the case of B1, the kcat [2] is reported as 45.7 ± 1.1 s^–1, the kcat/KM [2] is reported as 2.43 ± 0.36 μM^–1 s^–1 and the kcat/KM ([2]; listed as TR-pCBMA) is reported as 2.43 ± 0.36 μM^–1 s^–1 and 2.43 μM^–1 s^–1. It also gave a Km ([2]; read-out: KM) of 18.8 ± 2.8 µM and a kcat/KM [1, 3] of 0.292 μM^–1 s^–1.
